Where no end group is shown, it is not given here.
Tests used:
human plasmin [1] = target: T1, human plasmin (human, UniProt P00747 97-810); test: plasmin amidolytic inhibition, sample kept at 4° C., Day 3
T1 construct: Plasmin is a two-chain enzyme derived from plasminogen; also called Pm
Procedure: (§1) Reactions were carried out in TBS/BSA and 2 mM calcium. […] Synthetic substrate for plasmin was then added to a final concentration of 1 KM, and residual amidolytic activity was measured in a kinetic microplate reader (Molecular Devices). […] Data are analyzed using an equation for a tight-binding inhibitor and Kᵢ values are obtained by correcting for the effect of substrate concentration.

plasma kallikrein [2] = target: T2, plasma kallikrein (human, UniProt P03952 20-638); test: protease amidolytic inhibition, tight-binding equation
T2 construct: also called pKLK; KLK

human plasmin [3] = target: T1, human plasmin; test: as above
human plasmin [4] = target: T1, human plasmin; test: plasmin amidolytic inhibition, sample kept at 37° C., Day 2
Procedure: as §1

human plasmin [5] = target: T1, human plasmin; test: plasmin amidolytic inhibition, sample kept at room temperature, Day 4
Procedure: as §1

human plasmin [6] = target: T1, human plasmin; test: plasmin amidolytic inhibition, sample kept at 37° C., Day 1
Procedure: as §1

human plasmin [7] = target: T1, human plasmin; test: plasmin amidolytic inhibition, sample kept at room temperature, Day 5
Procedure: as §1

human plasmin [8] = target: T1, human plasmin; test: cell-based or functional assay
human plasmin [9] = target: T1, human plasmin; test: plasmin amidolytic inhibition, sample kept at 37° C., Day 5
Procedure: as §1

human plasmin [10] = target: T1, human plasmin; test: residual amidolytic activity of 3 nM human plasmin after incubation with the inhibitor (chromogenic substrate)
human plasmin [11] = target: T1, human plasmin; test: plasmin amidolytic inhibition, sample kept at 4° C., Day 6
Procedure: as §1

human plasmin [12] = target: T1, human plasmin; test: plasmin amidolytic inhibition, sample kept at room temperature, Day 2
Procedure: as §1

human plasmin [13] = target: T1, human plasmin; test: plasmin amidolytic inhibition, sample kept at 4° C., Day 1
Procedure: as §1

human plasmin [14] = target: T1, human plasmin; test: plasmin amidolytic inhibition, sample kept at 37° C., Day 6
Procedure: as §1

human plasmin [15] = target: T1, human plasmin; test: plasmin amidolytic inhibition, sample kept at 37° C., Day 4
Procedure: as §1

human plasmin [16] = target: T1, human plasmin; test: plasmin amidolytic inhibition, sample kept at 4° C., Day 5
Procedure: as §1

human plasmin [17] = target: T1, human plasmin; test: plasmin amidolytic inhibition, slow tight binding equation
Procedure: as §1

human plasmin [18] = target: T1, human plasmin; test: plasmin amidolytic inhibition, sample kept at 4° C., Day 7
Procedure: as §1

human plasmin [19] = target: T1, human plasmin; test: plasmin amidolytic inhibition, sample kept at room temperature, Day 6
Procedure: as §1

human plasmin [20] = target: T1, human plasmin; test: plasmin amidolytic inhibition, sample kept at room temperature, Day 1
Procedure: as §1

human plasmin [21] = target: T1, human plasmin; test: plasmin amidolytic inhibition, sample kept at room temperature, Day 3
Procedure: as §1

human plasmin [22] = target: T1, human plasmin; test: plasmin amidolytic inhibition, sample kept at 37° C., Day 7
Procedure: as §1

human plasmin [23] = target: T1, human plasmin; test: plasmin amidolytic inhibition, sample kept at 4° C., Day 4
Procedure: as §1

plasmin kringle domain = plasmin kringle domain (UniProt P00747); test: not stated (SPR implied)
human plasmin [24] = target: T1, human plasmin; test: plasmin amidolytic inhibition, sample kept at room temperature, Day 7
Procedure: as §1

human plasmin [25] = target: T1, human plasmin; test: plasmin amidolytic inhibition, sample kept at 37° C., Day 3
Procedure: as §1

factor XIa = target: T3, factor XIa (human, UniProt P03951 19-625); test: protease amidolytic inhibition, against the 60 residue double mutant Y11T/L17R
T3 construct: also called FXIa

[26] = target: T4, factor VIIa/soluble tissue factor (human, UniProt P08709 61-466; P13726 33-251); test: as above
T4 construct: Complex of the enzyme FVIIa and its cofactor sTF, used at 20 nM; also called FVIIa/sTF; factor VIIa/tissue factor

plasma kallikrein [27] = target: T2, plasma kallikrein; test: as above
human plasmin [28] = target: T1, human plasmin; test: plasmin amidolytic inhibition, sample kept at 4° C., Day 2
Procedure: as §1

T1 sequence (P00747 97-810 limits assumed): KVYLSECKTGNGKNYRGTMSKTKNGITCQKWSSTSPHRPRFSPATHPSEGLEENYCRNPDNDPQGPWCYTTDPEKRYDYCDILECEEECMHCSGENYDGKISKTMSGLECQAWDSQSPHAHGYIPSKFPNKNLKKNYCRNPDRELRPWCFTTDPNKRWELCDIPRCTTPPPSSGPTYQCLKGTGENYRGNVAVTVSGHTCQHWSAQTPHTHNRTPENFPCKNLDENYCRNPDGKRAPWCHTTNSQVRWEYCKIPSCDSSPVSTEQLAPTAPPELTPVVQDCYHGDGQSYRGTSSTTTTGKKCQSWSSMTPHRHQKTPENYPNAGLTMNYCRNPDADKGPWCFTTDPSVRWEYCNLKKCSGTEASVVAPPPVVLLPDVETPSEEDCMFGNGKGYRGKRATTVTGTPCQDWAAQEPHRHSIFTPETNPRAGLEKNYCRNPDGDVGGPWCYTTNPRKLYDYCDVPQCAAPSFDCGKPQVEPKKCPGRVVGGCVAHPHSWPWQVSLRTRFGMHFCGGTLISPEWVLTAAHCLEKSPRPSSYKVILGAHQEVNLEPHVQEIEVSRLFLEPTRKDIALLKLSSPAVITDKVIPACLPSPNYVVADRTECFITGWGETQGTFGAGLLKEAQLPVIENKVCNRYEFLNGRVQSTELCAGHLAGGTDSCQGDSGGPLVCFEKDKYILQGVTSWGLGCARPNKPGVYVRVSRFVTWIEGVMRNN
T2 sequence (P03952 20-638 limits assumed): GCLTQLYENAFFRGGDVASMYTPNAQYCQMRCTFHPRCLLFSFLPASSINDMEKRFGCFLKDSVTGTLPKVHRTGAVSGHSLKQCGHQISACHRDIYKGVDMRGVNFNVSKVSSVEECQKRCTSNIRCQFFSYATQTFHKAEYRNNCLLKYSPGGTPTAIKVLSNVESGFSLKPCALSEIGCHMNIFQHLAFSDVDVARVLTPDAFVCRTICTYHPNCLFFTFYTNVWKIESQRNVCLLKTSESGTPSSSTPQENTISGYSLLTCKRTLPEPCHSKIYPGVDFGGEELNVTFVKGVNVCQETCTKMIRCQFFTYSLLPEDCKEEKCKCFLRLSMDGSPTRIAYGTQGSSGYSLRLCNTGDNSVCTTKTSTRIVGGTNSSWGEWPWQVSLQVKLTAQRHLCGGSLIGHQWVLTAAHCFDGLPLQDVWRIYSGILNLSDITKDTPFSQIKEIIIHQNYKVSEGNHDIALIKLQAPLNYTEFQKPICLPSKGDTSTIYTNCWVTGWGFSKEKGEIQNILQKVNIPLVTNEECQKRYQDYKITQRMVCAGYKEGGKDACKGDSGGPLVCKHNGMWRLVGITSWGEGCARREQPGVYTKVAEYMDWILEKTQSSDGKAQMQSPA

B1: KD1Y11T/R15K/L17R-KT (designed binder)
chain: NAEICLLPLDTGPCKARLLRYYYDRYTQSCRQFLYGGCEGNANNFYTWEACDDACWRIEK
modifications: ends and bridges not checked; cysteine pairing not given here
notes: also called KD1TM; rHuKD1-TM
B1 was tested, and the Ki (human plasmin [1]) was 0.14 nM, the Ki (plasma kallikrein [2]) was > 20000 nM and the Ki (human plasmin [3]) was 0.15 nM. The Ki (human plasmin [4]) was 0.14 nM, the Ki (human plasmin [5]) was 0.14 nM and the Ki (human plasmin [6]) was 0.15 nM. The Ki (human plasmin [7]) was 0.14 nM, the “TEG G, 2 nM tPA + 2 µM KD1TM, whole blood” value (human plasmin [8]) was 3530 dyn/cm^2 and the “TEG G, 2 nM tPA + 4 µM KD1TM, whole blood” value (human plasmin [8]) was 4010 dyn/cm^2. For the same binder, the “TEG LY30, 2 nM tPA + 2 µM KD1TM, whole blood” value (human plasmin [8]) was 0.1%, the “TEG LY30, 2 nM tPA + 4 µM KD1TM, whole blood” value (human plasmin [8]) was 0% and the “TEG LY60, 2 nM tPA + 2 µM KD1TM, whole blood” value (human plasmin [8]) was 3.7%. For the same binder, the “TEG LY60, 2 nM tPA + 4 µM KD1TM, whole blood” value (human plasmin [8]) was 1.7%, the “TEG MA, 2 nM tPA + 2 µM KD1TM, whole blood” value (human plasmin [8]) was 41.4 mm and the “TEG MA, 2 nM tPA + 4 µM KD1TM, whole blood” value (human plasmin [8]) was 44.5 mm. The Ki (human plasmin [9]) was 0.15 nM, the “IC50 (read off the curve)” value (human plasmin [10]) was ~1 nM and the Ki (human plasmin [11]) was 0.15 nM. For the same binder, the Ki (human plasmin [12]) was 0.14 nM, the Ki (human plasmin [13]) was 0.14 nM and the Ki (human plasmin [14]) was 0.14 nM. For the same binder, the Ki (human plasmin [15]) was 0.15 nM, the Ki (human plasmin [16]) was 0.13 nM and the Ki (human plasmin [17]) was 0.05 nM. It also gave a Ki (human plasmin [18]) of 0.14 nM, a Ki (human plasmin [19]) of 0.15 nM and a Ki (human plasmin [20]) of 0.15 nM. For the same binder, the Ki (human plasmin [21]) was 0.15 nM, the Ki (human plasmin [22]) was 0.15 nM and the Ki (human plasmin [23]) was 0.14 nM. For the same binder, the Kd (plasmin kringle domain) was 40 nM, the Ki (human plasmin [24]) was 0.15 nM and the Ki (human plasmin [25]) was 0.15 nM. For the same binder, the “fold weaker inhibition than the Y11T/L17R double mutant” value (factor XIa) was ≥ 10 fold, the “fold weaker inhibition than the Y11T/L17R double mutant” value [26] was ≥ 10 fold and the “fold weaker inhibition than the Y11T/L17R double mutant” value (plasma kallikrein [27]) was ≥ 10 fold. For the same binder, the Ki (human plasmin [28]) was 0.13 nM.

Source: patent US20230331817A1 (The Regents of the University of California, priority 2020, published 2023)
